Test results reported in patent US10450368 (DUKE UNIVERSITY, dated 2019).

T1: SSB (UniProt P05455 1-408)
T1 sequence: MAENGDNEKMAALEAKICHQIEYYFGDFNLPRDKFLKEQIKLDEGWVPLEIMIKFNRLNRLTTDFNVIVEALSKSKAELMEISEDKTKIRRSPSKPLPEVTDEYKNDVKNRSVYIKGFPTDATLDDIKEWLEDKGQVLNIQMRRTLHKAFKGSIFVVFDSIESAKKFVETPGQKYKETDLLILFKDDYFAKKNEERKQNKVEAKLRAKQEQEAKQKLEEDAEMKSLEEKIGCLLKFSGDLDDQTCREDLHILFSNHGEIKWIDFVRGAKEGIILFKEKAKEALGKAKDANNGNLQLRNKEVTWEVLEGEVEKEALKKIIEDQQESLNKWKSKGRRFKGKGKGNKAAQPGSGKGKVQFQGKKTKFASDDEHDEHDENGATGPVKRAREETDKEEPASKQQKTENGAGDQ

T2: Scl-70 (UniProt P11387 1-765)
T2 sequence: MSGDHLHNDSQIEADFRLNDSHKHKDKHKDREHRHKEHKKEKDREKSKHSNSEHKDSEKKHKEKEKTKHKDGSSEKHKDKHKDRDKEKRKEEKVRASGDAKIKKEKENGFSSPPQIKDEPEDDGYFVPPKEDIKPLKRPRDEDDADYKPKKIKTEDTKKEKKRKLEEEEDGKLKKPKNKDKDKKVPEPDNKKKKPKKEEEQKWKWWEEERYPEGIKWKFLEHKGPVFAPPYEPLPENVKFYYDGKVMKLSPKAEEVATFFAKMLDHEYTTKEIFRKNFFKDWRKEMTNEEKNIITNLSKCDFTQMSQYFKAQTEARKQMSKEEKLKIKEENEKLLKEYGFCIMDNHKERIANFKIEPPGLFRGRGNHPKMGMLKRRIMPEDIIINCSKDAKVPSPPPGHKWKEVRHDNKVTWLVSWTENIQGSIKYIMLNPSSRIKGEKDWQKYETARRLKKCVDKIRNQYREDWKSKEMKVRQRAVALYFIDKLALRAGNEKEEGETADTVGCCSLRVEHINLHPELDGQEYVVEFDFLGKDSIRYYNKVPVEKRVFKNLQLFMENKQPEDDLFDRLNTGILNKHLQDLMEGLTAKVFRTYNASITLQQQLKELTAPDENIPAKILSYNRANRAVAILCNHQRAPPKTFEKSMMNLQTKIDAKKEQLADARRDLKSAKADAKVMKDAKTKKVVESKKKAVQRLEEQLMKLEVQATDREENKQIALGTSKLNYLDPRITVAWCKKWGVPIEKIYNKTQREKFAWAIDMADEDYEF

T3: Jo-1 (UniProt P12081 1-509)
T3 sequence: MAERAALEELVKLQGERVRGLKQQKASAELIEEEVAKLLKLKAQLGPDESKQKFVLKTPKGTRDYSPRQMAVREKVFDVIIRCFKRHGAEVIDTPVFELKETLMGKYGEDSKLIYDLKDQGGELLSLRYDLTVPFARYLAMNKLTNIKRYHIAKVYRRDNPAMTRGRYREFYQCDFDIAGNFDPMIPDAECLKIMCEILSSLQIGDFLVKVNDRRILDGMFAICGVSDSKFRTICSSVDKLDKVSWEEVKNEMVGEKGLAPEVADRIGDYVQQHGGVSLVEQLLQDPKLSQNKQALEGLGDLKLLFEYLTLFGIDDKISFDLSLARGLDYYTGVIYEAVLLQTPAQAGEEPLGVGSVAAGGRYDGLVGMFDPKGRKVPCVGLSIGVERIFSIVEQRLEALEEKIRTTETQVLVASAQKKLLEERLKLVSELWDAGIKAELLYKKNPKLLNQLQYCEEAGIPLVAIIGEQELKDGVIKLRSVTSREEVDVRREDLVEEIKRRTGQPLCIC


How the values were obtained:
SSA [1] = molecular target: T4, SSA; assay: AtheNA, Ab 50 ug/ml
T4 construct: also called SSA (Ro)
Source text: (§1) AtheNA Multi-Lyte ANA Plus Test System is one such assay. This is luminex-based assay, which is also used to screen patient sera.

Sm (Smith antigen) [2] = molecular target: T5, Sm (Smith antigen); assay: AtheNA, Ab 50 ug/ml
T5 construct: Protein complex
Source text: as §1

RNP (ribonucleoprotein) [3] = molecular target: T6, RNP (ribonucleoprotein); assay: AtheNA, Ab 50 ug/ml
T6 construct: Protein-RNA complex
Source text: as §1

SSA [4] = molecular target: T4, SSA; assay: AtheNA, Ab 25 ug/ml
SSB [5] = molecular target: T1, SSB; assay: AtheNA, Ab 25 ug/ml
Histones [6] = molecular target: T7, Histones; assay: AtheNA, Ab 25 ug/ml
T7 construct: Mixture of proteins

Sm (Smith antigen) [7] = molecular target: T5, Sm (Smith antigen); assay: AtheNA, Ab 25 ug/ml
RNP (ribonucleoprotein) [8] = molecular target: T6, RNP (ribonucleoprotein); assay: AtheNA, Ab 25 ug/ml
Scl-70 [9] = molecular target: T2, Scl-70; assay: AtheNA, Ab 25 ug/ml
Jo-1 [10] = molecular target: T3, Jo-1; assay: AtheNA, Ab 25 ug/ml
SSA [11] = molecular target: T4, SSA; assay: AtheNA, Ab 12.5 ug/ml
SSB [12] = molecular target: T1, SSB; assay: AtheNA, Ab 12.5 ug/ml
Histones [13] = molecular target: T7, Histones; assay: AtheNA, Ab 12.5 ug/ml
Sm (Smith antigen) [14] = molecular target: T5, Sm (Smith antigen); assay: AtheNA, Ab 12.5 ug/ml
RNP (ribonucleoprotein) [15] = molecular target: T6, RNP (ribonucleoprotein); assay: AtheNA, Ab 12.5 ug/ml
Scl-70 [16] = molecular target: T2, Scl-70; assay: AtheNA, Ab 12.5 ug/ml
Jo-1 [17] = molecular target: T3, Jo-1; assay: AtheNA, Ab 12.5 ug/ml
[18] = molecular target: T8, HIV-1 CH505 transmitted/founder gp120 Env (HIV-1); assay: competition ELISA, blocking of CH106 binding to gp120
T8 construct: domain: gp120; also called CH505.TF gp120; CH505 TF gp120 Env

SSA [19] = molecular target: T4, SSA; assay: AtheNA, Ab 6.25 ug/ml
SSB [20] = molecular target: T1, SSB; assay: AtheNA, Ab 6.25 ug/ml
Histones [21] = molecular target: T7, Histones; assay: AtheNA, Ab 6.25 ug/ml
RNP (ribonucleoprotein) [22] = molecular target: T6, RNP (ribonucleoprotein); assay: AtheNA, Ab 6.25 ug/ml
Scl-70 [23] = molecular target: T2, Scl-70; assay: AtheNA, Ab 6.25 ug/ml

Row | Binder | AtheNA signal (SSA [4]) | AtheNA signal (SSB [5]) | AtheNA signal (Histones [6]) | AtheNA signal (Sm (Smith antigen) [7]) | AtheNA signal (RNP (ribonucleoprotein) [8]) | AtheNA signal (Scl-70 [9]) | AtheNA signal (Jo-1 [10]) | AtheNA signal (SSA [11]) | AtheNA signal (SSB [12]) | AtheNA signal (Histones [13]) | AtheNA signal (Sm (Smith antigen) [14]) | AtheNA signal (RNP (ribonucleoprotein) [15]) | AtheNA signal (Scl-70 [16]) | AtheNA signal (Jo-1 [17]) | IC50 [18] [µg/mL] | AtheNA signal (SSA [19]) | AtheNA signal (SSB [20]) | AtheNA signal (Histones [21]) | AtheNA signal (RNP (ribonucleoprotein) [22]) | AtheNA signal (Scl-70 [23]) | also measured
1 | CH493 (antibody, V domains shown, also called CH235.9; DH493) VH: QVRLLQYGGGVKRPGASMTISCVASGYNFNDYYIHWVRQAPGQGLELMGWIDPSGGRTDYAGAFGDRVSMYRDKSMNTLYMDLRSLRSGDTAMYYCVRNVGTAGSLLHYDHWGLGVMVTVSS VL: EIVLTQSPATLSVSPGERVTLSCRASQSVRNNLAWYRQKRGQAPRLLIYGASTRATGIPARFSGSGSGTEFTLTISSMQSEDFAVYYCQQYNNWWTFGQGTKVEIK |  |  |  |  |  |  |  |  |  |  |  |  |  |  |  |  |  |  |  |  | AtheNA signal (SSA [1]): 155; AtheNA signal (Sm (Smith antigen) [2]): 37; AtheNA signal (RNP (ribonucleoprotein) [3]): 69
2 | CH241 (antibody, V domains shown) VH: QVQLVQSGAAVKKPGASVRVSCKASGYTFTSSHIHWVRQAPGQGPEWMGMIDPSVGRPTTAGKFQGRVTMTRDRYTSTAYMDLSSLRSEDTAVYYCARSVETTGSLLYFDYWGQGTLITVSS VL: EIVLTQSPATLSVSPGERATLSCRASQSVRSNIAWYQQKPGQAPRLLIHGASTRATGIPGRFSGSGSGPEFTLAISSVQSEDFAVYYCQQYNDWWTFGQGTKVEIK | 15 relative luminescence units | 6 relative luminescence units | 20 relative luminescence units | 11 relative luminescence units | 6 relative luminescence units | 4 relative luminescence units | 5 relative luminescence units | 14 relative luminescence units | 8 relative luminescence units | 13 relative luminescence units | 7 relative luminescence units | 5 relative luminescence units | 3 relative luminescence units | 6 relative luminescence units | 1.5 | 15 relative luminescence units | 4 relative luminescence units | 9 relative luminescence units | 3 relative luminescence units | 1 relative luminescence units | 
3 | CH235 (antibody, V domains shown, also called CH235_4A) VH: QVQLVQSGAEVKKPGASVTVSCQASGYTFTNYYVHWVRQAPGQGLQLMGWIDPSWGRTNYAQNFQGRITMTRDTSTSTVYMEMRSLRSEDTAVYYCARNVATEGSLLHYDYWGQGTLVTVSA VL: EIVLTQSPATLSVSPGERATLSCRASQSVRSNLAWYQQRPGQAPRLLIYGTSTRATGVPARFSGRGSGTEFTLAISSMQSEDFAVYLCLQYNNWWTFGQGTKVEIK | 13 relative luminescence units | 5 relative luminescence units | 7 relative luminescence units | 7 relative luminescence units | 5 relative luminescence units | 4 relative luminescence units | 4 relative luminescence units | 13 relative luminescence units | 5 relative luminescence units | 5 relative luminescence units | 8 relative luminescence units | 6 relative luminescence units | 2 relative luminescence units | 3 relative luminescence units | 16.5 | 12 relative luminescence units | 6 relative luminescence units | 5 relative luminescence units | 3 relative luminescence units | 2 relative luminescence units | 
